Reference: the supplement of paper PMC9170038

system: K4 kissing-loop RNA reporter; test: apparent KD of K4 kissing-loop reporter; higher = weaker reporter binding; conditions: Eterna round: R107; input ligand: none
Procedure: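 RNA-MaP round R107: designed RNA switches with theophylline, tryptophan, arginine or FMN aptamers are transcribed on-chip within common flanks. They are titrated with a labelled K4 kissing-loop RNA reporter in RNA-MaP buffer (100 mM Tris pH 7.5, 80 mM KCl, 4 mM MgCl2), without ligand or with the indicated ligand. Median apparent KD per design.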
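Further: bound reporter read as fluorescence of individual clusters on recovered sequencing chips by microscopy, with normalized cluster intensities fitted with a binding model.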

Sequence	apparent KD of K4 kissing-loop reporter [nM]
CCUUCUCUUGAUAGUGAUGUUAUCAAGGACAAGGAUAUCAUCUCAAUGAGAAGGUGUCCUUGAUAACAUGGAGGUCUGAAACAGA [Omei KL FMN A Exc C v3]	287
AGACUACCACACUGUCAAUAGACAGUGAACUAGGAUAUGCUGAUAAGCAGAAGGAGUGAUGUUCCUGGGUAGUCAAUAAAAUAAU [FmnAX 13 G67]	367
CACGAUGAAUUCUCUAGGAGUGAUGUUUUUCGAGGACCGGUACGGCCGCCACUCGGACGACGAGCGUGGUAGCGGGCUGAAGACU [iuullin]	1120
ACGUGCACCAGUGAUGUUGGAAAAUAUGAAGGAGCGGGCGAAAGCCCAGGUAGGUCGCAUAAUAGCACGAGCCACGAAAGUGGCA [#SwitchBubble 20 #K4Early]	184
CGUGGUGCCAAAGGAUAUCAUGCUAACGCGGUUGAGUGAUGUUCGACCCGAGAUAAGAGUGGGCAUUGAGAAGGUUGCGCAGAAG [theeternabot_sameState_KL_FMN_B_10]	139
UUGGAAAGACCAGAACAGGGCCUUAUCUGGGAGGAUAUGCUGGAGGGCAGAAGGCCCAGUGAUGUUGGGCCUUGUGCUCGUUCUA [Ainanti]	139
AAUGCAUUGUGAAGGAGCGCGAUAGGCAGUGAUGUUGCUUACAUUUUAUUAUGUUUUAAAACGCAGGUAGGUCGCACUUUGCAUA [JR_Nu_SSArginiB_Sub030]	183
AAUGCAUAGUGAAGGAGCGCGAUAAGCAGUGAUGUUGCUUAGUUAUAAGUGUUUAUUUAUUCGCAGGUAGGUCGCACUUUGCAUA [JR_ExcArginiB_Sub019]	124
CUUAUUAUGUCGGCCGCCACUCAAUGAUAAUCCACUAAAUUGCGAUUCAGUGAUGUUGAAGUGCUGAGGACCGGGACUAUUAACA [theeternabot_sameState_KL_Trp_B_22]	345
AUGUCUGAUAGCAGUGAUGUUGCUUCGGAUACCAGACGAGAUCAUGUCCCUUGGCAGCUGACACGGCACGUGCUAGGUUAGAUGG [whbob_Ex_Theo_A_th73]	111
AGUGAUAUAUGAGGAUAUGGGAUAGUUAAUGAGUUAGUUUUAGUGUUGUUUGGUUAGUGAUGUUAUUUAGAAGGCGUGAGUGAUG [tptymullin]	76.7
UGACAUUGCUCAGAUACCAGACUUGAGGAUCACCCAGGUGCCAAACGUACAAUAAUAAAAGUCCCUUGGCAGCUGAGCAAUGUCU [TheoBX 14]	30.2
UAUAUAGUGACGGCCGCCACUAUAUUAAUGUUUUUGUUAGAGUGAUGUUUUGUUUUAUAUUUUUAUAGGACCGGGUUAUAUGUUA [klppxmullin]	626
GAUGGCAUGCGAGGAUAUUGUACGGAGUGAUGUUCCCAUUAUCCAGGUAUUCGAUUGACGAGUAUCCAAGAAGGCGCAUGCCAUC	136
AAAGUUGAAAGUGAUACCAGACGAGUGAAGGGAAGAAAUUAAUUUGGAGUGAUGUUCCGCGUCCCUUGGCAGCACUUUGUAAUUU [Exclusion Theophylline B GF 23]	142
ACGAAGGAUGGAAGGAGCGCUCGUCAGUCCUGCGAGUGAUGUUCGUGGGUAAAUAGUCGCGAGCAGGUAGGUCGCCAUCUUGAGC [Isarteza]	119
AUAUAGUGAUGUUAUAUAAUAAUCUCUGAUACCAGUCAUUUAGAAGACCCUUGGCAGCAGCUAUAUAUAGGGAAACAAUACAUAA [AstrosExytheA#1]	709
GCUAUGGUUGGAAGGAGCGUUGGGUUACUAAUAAGAGUGAUGUUCGAUAGUAGGUAAUUGUAGCAGGUAGGUCGCCAACUAUAGC [KL-Arg B26]	329
UGAUACCAGACGGCCGCCACUGCACCAGUCAAUGACUGAGUGUAGUAUUGCUCAGUGAUGUUGAGUAGGACCGGGUCUGGUAUCU [Mod of Eli's TrypBX 8]	108
CAUAGGAAACUAUGUAUCUCUCUUACUGAAGGAGCGCGUGAAAACGCAGGUAGGUCGCAGAAUUUAAUAGAGAGUGAUGUUCUCA [Ex Arginine A K4 6]	496
UGCGUCGGUUCAGAUACCAGCCAAUUAGAGUCGAGUGAUGUUCGACAUUGAACGUCCAAAGGCCCUUGGCAGCUGGAUUGAGGAU [Same State Theophylline B GF 21]	114
UUAAGGGUCCGAGGAUAUCUCCCAGUGAUGUUGGGCGAUACGGCCCUUAAGACGAAUGGUUGAAGGAGAGAAGGCGGCUCCCGAU [Onatbi]	108

same assay, conditions: Eterna round: R107; input ligand: theophylline 20 uM

Sequence	apparent KD of K4 kissing-loop reporter [nM]
CAUACGCAUGGAGGAUAUGAGAUUUCUCAUAUUAUUGUUUAUUCUCAGUGAUGUUGGGAUUUAAACUCAGAAGGCCAUGUGUAUG [Ex FMN B 9]	137
CCUGAGUGAUGUUUAGGAGGCCCGAUAGAUACCAGAAAUACUGCGUUCCCUUGGCAGCUACGCGGACGGAAGACUACGUUACACG [theeternabot_exclusion_KL_Theo_A_16]	379
CCAGGUGGAAAAGGAUAUCUAGGAGUGAUGUUCCAUAUGAAAUUAGUUUAUCACCAAACGUCGACCAGAGAAGGUUUCCCAAUUU [theeternabot_exclusion_KL_FMN_B_31]	489
AAAAUAAUCCAGUGAUGUUGGUAUCCAGAUACCAGCGACGAAAGUCGCCCUUGGCAGCUGUGGACGUACAAAAUAAGUACGUCCU [#OpenEnded 9 #StaticStem #K4Early]	842
GGCGCUGCCUGUGCCGCCCUCCUCGUCCCUCGAGGACCGGUACGGCCGCCACUCGAGUGAUGUUCGGGUAGCCCUCCCUGCCAGC [BDazzled - #23 Exc. Tryptophan A]	511
GCUAUGGUAGGAAGGAGCGCUUAUUUAUUAAUAAGAGUGAUGUUCGAUAAUAGAUAUUUAUAGCAGGUAGGUCGCCUACUAUAGC [Arginine B K4 11]	321
AGUAGUUGGGCGGCCGCCACUAGAACAGCUUUGCCAAAGGCAGAGCUCUAGAGUGAUGUUCUGGCUAGGACCGGGUCCAACUACA [#01 K4 Tryptophan B Same State]	980
GUGCAGUGAUGUUGCACGAGGAAAGACGAUACCAGCCGUAAAUAAGGCCCUUGGCAGCGUAGGCCAGCAUAAAGUAUGCUAGUCU [Oresbelaen]	89.2
AAAUUUAAUAUAUUUAAAUAAAUAUGUGAUACCAGACAUUUAUAAGUCCCUUGGCAGCACAUUGCAGUGAUGUUGCUUAUAAUAA [JR_SSTheophyA_Sub016]	145
GGGUUCUCGUCGGCCGCCACUUCAUGUAUUUAGCAGGCUUCGCUCAGACUCAGUGAUGUUGGGUAAAGGACCGGGACACAUUCAA [theeternabot_exclusion_KL_Trp_B_50]	304
AAAUUUGCCACUGAUACCAGCCAGUGAUGUUGGCGGUAGUUCUAUGGUACCAUACAUUGUGGCCCUUGGCAGCAGGGCACAGAGC [Raxeisra]	115
AUUUAAUGUAUAGAUUAUAUACAUUAUUCAGAGGAUAUGCAUUGAAGCAGAAGGCUGGAUGUAGUGAUGUUGCAAUUUUAAUUUA [JR_SSFMNA_Sub007]	299
CGAUACGGAAAUACGUGUCUCUAUUCAGAAGGAGCGUGUUUGUACACAGGUAGGUCGCUGAAAUUUAAACUAGUGAUGUUAGACU [JR_SSArginiA_Sub003]	895
CCAUCGCUAUUCGAUACCAGUCAAUAGGUCUUUGGCCUAUUAAUGGAGUGAUGUUCCUUAGACCCUUGGCAGCGAAUAGUGAUGG [Theophylline B K4 12]	166
GCAUCCAUGGCAGGAUAUAGCUGAGUGAUGUUCAGGACCCAGUCAGUAUCCAUUACUACUGGACUUCUAGAAGGGCCAUGGAUGC	288
AUGUCUGAUAGCAGUGAUGUUGCUUCGGAUACCAGACGCGAUCAUGUCCCUUGGCAGCUGACACGGCACGUGCUAGGUUAGAUGG [whbob_Ex_Theo_A_th74]	112

Sequence	apparent KD of K4 kissing-loop reporter [nM]
UUAGAUGAUUCAUCAAGAUUGAUGAGCAAACGAGGACCGGUACGGCCGCCACUCGAGUGAUGUUCGAGAAGCUCAUCAAUCAAUU [AK4.2 EXC Tryptophan A]	127
AUUCAUUUCAGAGGAUAUCGAAGGAGAGUGAUGUUCUCCCAUAGCCCAGUGAUGUUGGAAGCUAUUCGAGAAGGCUGUGGGUGGA [Same State FMN B GF 26]	222
UUAUAUUUUAUAUUUAGUAGAGCUCUCACUCGAGGACCGGUACGGCCGCCACUCGAGUGAUGUUCGAGUGGGAGAGCUCUACAUU [AK3.2 EXC Tryptophan A]	116
CCAUCGCUAUUCGAUACCAGUCAUUUUUUAUUUUAUUUUUUUUUUGGAGUGAUGUUCCAAGACCCUUGGCAGCGGAUAGUGAUGG [whbob_SS_Theo_B_th79]	158
GUAUCGCUAGGAGGAUAUUCCAAUCCGCCUAUAAUAGGUGGUACGGAGUGAUGUUCCGAUUUACGGGAAGAAGGCCUAGUGAUAC [FMN B 17]	381
CCUUCUCUUGAUAGUGAUGUUAUCAAGGACAAGGAUAUCAUCUCAAUGAGAAGGUGUCCUUGAUAACAUGGAGGUCUGAAACAGA [Omei KL FMN A Exc C v3]	407
AGACUACCACACUGUCAAUAGACAGUGAACUAGGAUAUGCUGAUAAGCAGAAGGAGUGAUGUUCCUGGGUAGUCAAUAAAAUAAU [FmnAX 13 G67]	427
CACGAUGAAUUCUCUAGGAGUGAUGUUUUUCGAGGACCGGUACGGCCGCCACUCGGACGACGAGCGUGGUAGCGGGCUGAAGACU [iuullin]	674
ACGUGCACCAGUGAUGUUGGAAAAUAUGAAGGAGCGGGCGAAAGCCCAGGUAGGUCGCAUAAUAGCACGAGCCACGAAAGUGGCA [#SwitchBubble 20 #K4Early]	132
CGUGGUGCCAAAGGAUAUCAUGCUAACGCGGUUGAGUGAUGUUCGACCCGAGAUAAGAGUGGGCAUUGAGAAGGUUGCGCAGAAG [theeternabot_sameState_KL_FMN_B_10]	124
UUGGAAAGACCAGAACAGGGCCUUAUCUGGGAGGAUAUGCUGGAGGGCAGAAGGCCCAGUGAUGUUGGGCCUUGUGCUCGUUCUA [Ainanti]	137
AAUGCAUUGUGAAGGAGCGCGAUAGGCAGUGAUGUUGCUUACAUUUUAUUAUGUUUUAAAACGCAGGUAGGUCGCACUUUGCAUA [JR_Nu_SSArginiB_Sub030]	193
AAUGCAUAGUGAAGGAGCGCGAUAAGCAGUGAUGUUGCUUAGUUAUAAGUGUUUAUUUAUUCGCAGGUAGGUCGCACUUUGCAUA [JR_ExcArginiB_Sub019]	117
CUUAUUAUGUCGGCCGCCACUCAAUGAUAAUCCACUAAAUUGCGAUUCAGUGAUGUUGAAGUGCUGAGGACCGGGACUAUUAACA [theeternabot_sameState_KL_Trp_B_22]	214
AUGUCUGAUAGCAGUGAUGUUGCUUCGGAUACCAGACGAGAUCAUGUCCCUUGGCAGCUGACACGGCACGUGCUAGGUUAGAUGG [whbob_Ex_Theo_A_th73]	94.7
AGUGAUAUAUGAGGAUAUGGGAUAGUUAAUGAGUUAGUUUUAGUGUUGUUUGGUUAGUGAUGUUAUUUAGAAGGCGUGAGUGAUG [tptymullin]	106
